Literature values, collected in paper PMC8138766.
Like-named read-outs stand apart in the source and are kept apart here.

Assays:
[1] = molecular target: V-ATPase subunit C (Saccharomyces cerevisiae) (UniProt P31412)
[2] = molecular target: V-ATPase subunit C (Saccharomyces cerevisiae) (UniProt P31412); remark: listed apart in the source

Chain of V-ATPase subunit C (Saccharomyces cerevisiae) (P31412 2-392): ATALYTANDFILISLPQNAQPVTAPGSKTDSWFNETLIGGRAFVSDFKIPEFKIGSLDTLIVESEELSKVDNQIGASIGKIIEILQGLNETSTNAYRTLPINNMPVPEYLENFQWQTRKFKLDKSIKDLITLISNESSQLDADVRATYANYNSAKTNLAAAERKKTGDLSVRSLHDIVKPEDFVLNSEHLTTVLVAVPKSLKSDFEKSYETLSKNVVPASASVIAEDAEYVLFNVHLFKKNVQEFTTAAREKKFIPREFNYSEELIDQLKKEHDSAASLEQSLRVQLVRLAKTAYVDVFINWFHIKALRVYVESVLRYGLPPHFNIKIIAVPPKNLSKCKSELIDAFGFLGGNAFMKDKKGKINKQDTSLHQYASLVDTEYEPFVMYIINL
Chain of EG stalk (P22203 2-233): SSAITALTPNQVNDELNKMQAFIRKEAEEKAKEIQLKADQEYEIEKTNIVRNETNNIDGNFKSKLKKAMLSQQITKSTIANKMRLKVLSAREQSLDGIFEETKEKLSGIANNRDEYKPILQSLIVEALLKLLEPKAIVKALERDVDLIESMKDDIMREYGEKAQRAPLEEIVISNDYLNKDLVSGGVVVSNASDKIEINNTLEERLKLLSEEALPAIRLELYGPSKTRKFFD
Chain of EG stalk (P48836 2-114, further chain): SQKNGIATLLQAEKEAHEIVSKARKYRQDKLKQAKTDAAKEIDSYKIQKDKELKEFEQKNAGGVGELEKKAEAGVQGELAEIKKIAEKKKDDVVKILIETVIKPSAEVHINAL
Chain of V1 (P17255 2-1071): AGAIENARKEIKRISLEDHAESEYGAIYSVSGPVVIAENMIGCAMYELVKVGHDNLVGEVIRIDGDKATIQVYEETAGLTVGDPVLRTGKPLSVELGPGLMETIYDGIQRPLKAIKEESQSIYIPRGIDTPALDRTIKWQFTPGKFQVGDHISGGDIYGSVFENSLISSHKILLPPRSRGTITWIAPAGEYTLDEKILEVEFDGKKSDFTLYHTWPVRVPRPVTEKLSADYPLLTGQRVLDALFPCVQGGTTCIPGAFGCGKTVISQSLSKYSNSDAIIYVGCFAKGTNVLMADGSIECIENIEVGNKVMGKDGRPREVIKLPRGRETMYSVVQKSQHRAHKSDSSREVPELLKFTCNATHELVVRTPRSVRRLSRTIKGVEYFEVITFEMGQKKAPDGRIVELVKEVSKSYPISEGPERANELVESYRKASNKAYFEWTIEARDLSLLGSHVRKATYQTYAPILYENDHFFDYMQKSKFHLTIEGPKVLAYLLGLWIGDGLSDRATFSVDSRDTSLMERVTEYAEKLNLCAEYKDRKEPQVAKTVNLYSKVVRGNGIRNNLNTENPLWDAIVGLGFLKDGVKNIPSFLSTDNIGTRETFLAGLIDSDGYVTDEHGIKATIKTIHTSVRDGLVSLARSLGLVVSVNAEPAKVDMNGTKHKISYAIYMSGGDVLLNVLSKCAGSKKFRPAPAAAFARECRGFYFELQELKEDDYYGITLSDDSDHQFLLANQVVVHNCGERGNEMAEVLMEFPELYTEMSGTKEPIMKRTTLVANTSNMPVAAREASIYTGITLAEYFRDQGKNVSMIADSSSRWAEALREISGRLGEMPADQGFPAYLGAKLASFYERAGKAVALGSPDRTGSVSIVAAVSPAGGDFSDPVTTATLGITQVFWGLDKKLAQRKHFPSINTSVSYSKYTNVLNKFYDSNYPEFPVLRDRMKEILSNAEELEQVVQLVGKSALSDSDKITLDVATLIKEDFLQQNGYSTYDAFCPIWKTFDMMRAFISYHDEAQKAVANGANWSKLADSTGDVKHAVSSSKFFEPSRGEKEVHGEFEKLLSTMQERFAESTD
Chain of V1 (P16140 2-517, further chain): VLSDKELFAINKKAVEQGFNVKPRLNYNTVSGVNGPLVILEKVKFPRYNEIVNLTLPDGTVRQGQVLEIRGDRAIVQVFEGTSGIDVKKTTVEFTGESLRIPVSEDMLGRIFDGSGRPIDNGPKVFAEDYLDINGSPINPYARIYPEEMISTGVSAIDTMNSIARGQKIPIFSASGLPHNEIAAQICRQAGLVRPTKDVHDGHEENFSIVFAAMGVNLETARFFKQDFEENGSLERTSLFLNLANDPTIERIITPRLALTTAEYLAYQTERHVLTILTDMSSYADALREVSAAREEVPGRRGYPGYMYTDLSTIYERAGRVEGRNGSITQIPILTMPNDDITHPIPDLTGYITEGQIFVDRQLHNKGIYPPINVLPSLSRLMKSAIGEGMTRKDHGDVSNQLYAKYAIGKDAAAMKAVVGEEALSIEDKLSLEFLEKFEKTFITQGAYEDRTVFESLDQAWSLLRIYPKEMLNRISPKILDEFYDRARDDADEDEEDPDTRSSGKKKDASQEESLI

Kd [1] [nM]	Kd [2] [nM]	Substance
42		EG stalk (from UniProt P22203)
	0.7	V1 (from UniProt P17255)
